Like-named read-outs stand apart in the source and are kept apart here. *: point of attachment. Biotin = O=C1N[C@H]2[C@H](CS[C@H]2CCCCC(=O)*)N1; TTDS = Trioxatridecan-succinamic acid linker
How the values were obtained:
[1] = target: T1, catalytic subunit of DNA polymerase ε (POLE), endogenous (human (endogenous in Jurkat and in …, UniProt Q07864 1-2286)); test: nHU, apparent Kd
HA-POLE2 = HA-POLE2 (human, UniProt P56282 1-527); test: nHU, apparent Kd, f = 0.82
HA-MBP-POLE2 = HA-MBP-POLE2 (human, UniProt P56282 1-527); test: nHU in cell extract, apparent Kd, f = 0.37
[2] = target: His6-AviTag-MBP-TEV-POLE2 (human, UniProt P56282 1-527, biotin on the AviTag (BirA co-expressed, biotin in the medium)); test: nHU, apparent Kd
[3] = target: T1, catalytic subunit of DNA polymerase ε …; test: nHU, apparent Kd; remark: listed apart in the source

T1 sequence (Q07864 whole entry): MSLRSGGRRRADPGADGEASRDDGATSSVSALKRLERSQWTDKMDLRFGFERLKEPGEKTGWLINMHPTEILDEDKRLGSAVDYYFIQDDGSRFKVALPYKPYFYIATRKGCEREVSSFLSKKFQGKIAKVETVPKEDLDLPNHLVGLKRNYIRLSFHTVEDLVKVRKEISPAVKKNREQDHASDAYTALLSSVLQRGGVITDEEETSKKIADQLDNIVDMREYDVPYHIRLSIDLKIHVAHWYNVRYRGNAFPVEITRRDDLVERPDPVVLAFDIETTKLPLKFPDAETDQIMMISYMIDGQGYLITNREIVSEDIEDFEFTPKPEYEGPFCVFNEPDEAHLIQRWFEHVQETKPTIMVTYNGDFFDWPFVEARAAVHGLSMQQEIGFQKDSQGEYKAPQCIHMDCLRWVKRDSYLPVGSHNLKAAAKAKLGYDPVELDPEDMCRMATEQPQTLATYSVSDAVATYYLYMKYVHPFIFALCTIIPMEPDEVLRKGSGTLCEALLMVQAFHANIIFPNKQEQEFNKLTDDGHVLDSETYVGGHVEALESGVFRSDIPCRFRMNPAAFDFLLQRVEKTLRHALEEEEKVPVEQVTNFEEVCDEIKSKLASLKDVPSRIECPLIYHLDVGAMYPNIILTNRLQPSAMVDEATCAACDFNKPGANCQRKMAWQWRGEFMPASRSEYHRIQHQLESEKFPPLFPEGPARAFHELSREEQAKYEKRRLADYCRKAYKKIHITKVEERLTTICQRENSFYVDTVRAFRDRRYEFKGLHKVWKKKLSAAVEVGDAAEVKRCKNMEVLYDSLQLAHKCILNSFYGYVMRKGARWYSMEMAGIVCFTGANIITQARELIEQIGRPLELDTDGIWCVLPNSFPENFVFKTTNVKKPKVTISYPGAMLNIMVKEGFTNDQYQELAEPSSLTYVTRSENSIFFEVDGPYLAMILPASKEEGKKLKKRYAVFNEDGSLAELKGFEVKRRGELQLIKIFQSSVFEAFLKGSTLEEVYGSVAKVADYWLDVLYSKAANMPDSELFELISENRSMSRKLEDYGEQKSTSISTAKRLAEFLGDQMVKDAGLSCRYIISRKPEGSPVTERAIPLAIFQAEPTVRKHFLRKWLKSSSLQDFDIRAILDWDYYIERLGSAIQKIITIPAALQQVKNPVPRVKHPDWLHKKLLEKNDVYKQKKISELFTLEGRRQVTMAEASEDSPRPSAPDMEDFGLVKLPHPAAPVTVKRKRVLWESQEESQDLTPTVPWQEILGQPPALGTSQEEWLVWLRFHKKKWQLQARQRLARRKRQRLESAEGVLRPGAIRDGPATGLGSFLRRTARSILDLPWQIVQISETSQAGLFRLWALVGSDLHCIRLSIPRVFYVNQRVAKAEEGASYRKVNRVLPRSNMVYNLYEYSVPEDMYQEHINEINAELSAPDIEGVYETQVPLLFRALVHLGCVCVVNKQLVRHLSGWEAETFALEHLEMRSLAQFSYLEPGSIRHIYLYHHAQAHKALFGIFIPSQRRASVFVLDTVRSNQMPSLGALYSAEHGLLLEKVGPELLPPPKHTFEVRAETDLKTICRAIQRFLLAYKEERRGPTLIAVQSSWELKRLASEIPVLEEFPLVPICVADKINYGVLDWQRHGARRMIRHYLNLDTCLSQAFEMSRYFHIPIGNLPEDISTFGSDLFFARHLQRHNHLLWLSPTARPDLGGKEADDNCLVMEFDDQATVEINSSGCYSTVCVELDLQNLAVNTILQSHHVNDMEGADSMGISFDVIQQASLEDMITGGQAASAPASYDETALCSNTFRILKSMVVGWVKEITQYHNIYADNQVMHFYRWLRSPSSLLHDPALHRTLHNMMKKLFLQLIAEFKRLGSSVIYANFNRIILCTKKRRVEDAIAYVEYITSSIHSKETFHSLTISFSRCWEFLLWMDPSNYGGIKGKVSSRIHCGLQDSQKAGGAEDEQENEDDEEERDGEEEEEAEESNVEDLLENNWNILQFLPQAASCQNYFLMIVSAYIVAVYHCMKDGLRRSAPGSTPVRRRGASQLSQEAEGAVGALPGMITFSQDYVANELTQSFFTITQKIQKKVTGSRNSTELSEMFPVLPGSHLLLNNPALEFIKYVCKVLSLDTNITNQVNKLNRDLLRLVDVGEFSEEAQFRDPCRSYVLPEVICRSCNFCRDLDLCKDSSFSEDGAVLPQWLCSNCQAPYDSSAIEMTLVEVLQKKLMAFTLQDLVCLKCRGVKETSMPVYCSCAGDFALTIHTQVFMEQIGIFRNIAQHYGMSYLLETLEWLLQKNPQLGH
Sequence of His6-AviTag-MBP-TEV-POLE2 (P56282 whole entry): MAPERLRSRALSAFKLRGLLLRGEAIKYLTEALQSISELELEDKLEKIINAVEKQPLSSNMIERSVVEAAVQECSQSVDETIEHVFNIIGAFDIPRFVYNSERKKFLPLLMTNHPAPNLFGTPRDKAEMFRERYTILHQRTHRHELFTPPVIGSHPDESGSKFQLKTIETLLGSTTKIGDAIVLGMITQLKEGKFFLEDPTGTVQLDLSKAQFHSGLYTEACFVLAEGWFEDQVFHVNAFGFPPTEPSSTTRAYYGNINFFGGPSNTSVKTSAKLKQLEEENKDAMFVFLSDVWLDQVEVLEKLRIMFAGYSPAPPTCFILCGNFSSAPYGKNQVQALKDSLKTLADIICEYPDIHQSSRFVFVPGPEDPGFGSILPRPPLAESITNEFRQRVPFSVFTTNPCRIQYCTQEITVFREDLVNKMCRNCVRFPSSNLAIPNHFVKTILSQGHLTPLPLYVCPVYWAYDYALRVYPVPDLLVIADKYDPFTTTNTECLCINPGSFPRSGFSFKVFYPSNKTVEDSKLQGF
Sequence of HA-POLE2 (P56282 whole entry): as above
Sequence of HA-MBP-POLE2 (P56282 whole entry): as above

B1: NPF motif peptide of WDHD1 (residues 906-924) (peptide)
peptide: SSQGRVNPFKVSASSKEPA
HELM: PEPTIDE1{[O=C1N[C@H]2[C@H](CS[C@H]2CCCCC(=O)[*:2])N1].[O=C(CCCCCN[*:1])[*:2]].S.S.Q.G.R.V.N.P.F.K.V.S.A.S.S.K.E.P.A.[am]}$$$$V2.0
SMILES: CC(C)[C@H](NC(=O)[C@H](CCCCN)NC(=O)[C@H](Cc1ccccc1)NC(=O)[C@@H]1CCCN1C(=O)[C@H](CC(N)=O)NC(=O)[C@@H](NC(=O)[C@H](CCCNC(=N)N)NC(=O)CNC(=O)[C@H](CCC(N)=O)NC(=O)[C@H](CO)NC(=O)[C@H](CO)NC(=O)CCCCCNC(=O)CCCC[C@@H]1SC[C@@H]2NC(=O)N[C@@H]21)C(C)C)C(=O)N[C@@H](CO)C(=O)N[C@@H](C)C(=O)N[C@@H](CO)C(=O)N[C@@H](CO)C(=O)N[C@@H](CCCCN)C(=O)N[C@@H](CCC(=O)O)C(=O)N1CCC[C@H]1C(=O)N[C@@H](C)C(N)=O
Question: For B1, which Kd [1] is on record?
Answer: 14 µM

B2: NPF motif peptide of DONSON (residues 71-88) (peptide)
peptide: {Biotin-TTDS}-GPAAARRNPFARLDNRPR-NH2
Question: Which Kd (HA-POLE2) does the source give for B2 here?
Answer: 0.52 µM

Question: What about the Kd (HA-MBP-POLE2) of the same binder?
Answer: 1.3 µM

B3: HA-ERCC6L, full length, intact NPF motif (natural protein)
chain: MEASRRFPEAEALSPEQAAHYLRYVKEAKEATKNGDLEEAFKLFNLAKDIFPNEKVLSRIQKIQEALEELAEQGDDEFTDVCNSGLLLYRELHNQLFEHQKEGIAFLYSLYRDGRKGGILADDMGLGKTVQIIAFLSGMFDASLVNHVLLIMPTNLINTWVKEFIKWTPGMRVKTFHGPSKDERTRNLNRIQQRNGVIITTYQMLINNWQQLSSFRGQEFVWDYVILDEAHKIKTSSTKSAICARAIPASNRLLLTGTPIQNNLQELWSLFDFACQGSLLGTLKTFKMEYENPITRAREKDATPGEKALGFKISENLMAIIKPYFLRRTKEDVQKKKSSNPEARLNEKNPDVDAICEMPSLSRKNDLIIWIRLVPLQEEIYRKFVSLDHIKELLMETRSPLAELGVLKKLCDHPRLLSARACCLLNLGTFSAQDGNEGEDSPDVDHIDQVTDDTLMEESGKMIFLMDLLKRLRDEGHQTLVFSQSRQILNIIERLLKNRHFKTLRIDGTVTHLLEREKRINLFQQNKDYSVFLLTTQVGGVGLTLTAATRVVIFDPSWNPATDAQAVDRVYRIGQKENVVVYRLITCGTVEEKIYRRQVFKDSLIRQTTGEKKNPFRYFSKQELRELFTIEDLQNSVTQLQLQSLHAAQRKSDIKLDEHIAYLQSLGIAGISDHDLMYTCDLSVKEELDVVEESHYIQQRVQKAQFLVEFESQNKEFLMEQQRTRNEGAWLREPVFPSSTKKKCPKLNKPQPQPSPLLSTHHTQEEDISSKMASVVIDDLPKEGEKQDLSSIKVNVTTLQDGKGTGSADSIATLPKGFGSVEELCTNSSLGMEKSFATKNEAVQKETLQEGPKQEALQEDPLESFNYVLSKSTKADIGPNLDQLKDDEILRHCNPWPIISITNESQNAESNVSIIEIADDLSASHSALQDAQASEAKLEEEPSASSPQYACDFNLFLEDSADNRQNFSSQSLEHVEKENSLCGSAPNSRAGFVHSKTCLSWEFSEKDDEPEEVVVKAKIRSKARRIVSDGEDEDDSFKDTSSINPFNTSLFQFSSVKQFDASTPKNDISPPGRFFSSQIPSSVNKSMNSRRSLASRRSLINMVLDHVEDMEERLDDSSEAKGPEDYPEEGVEESSGEASKYTEEDPSGETLSSENKSSWLMTSKPSALAQETSLGAPEPLSGEQLVGSPQDKAAEATNDYETLVKRGKELKECGKIQEALNCLVKALDIKSADPEVMLLTLSLYKQLNNN
Question: For B3, which Kd [2] is on record?
Answer: 2.4 µM

B4: NPF motif peptide of TTF2 (residues 116-143) (peptide)
peptide: HHSSNWLRNPFKVLDKNQEPALWKQLIK
HELM: PEPTIDE1{[O=C1N[C@H]2[C@H](CS[C@H]2CCCCC(=O)[*:2])N1].[O=C(CCCCCN[*:1])[*:2]].H.H.S.S.N.W.L.R.N.P.F.K.V.L.D.K.N.Q.E.P.A.L.W.K.Q.L.I.K.[am]}$$$$V2.0
SMILES: CC[C@H](C)[C@H](NC(=O)[C@H](CC(C)C)NC(=O)[C@H](CCC(N)=O)NC(=O)[C@H](CCCCN)NC(=O)[C@H](Cc1c[nH]c2ccccc12)NC(=O)[C@H](CC(C)C)NC(=O)[C@H](C)NC(=O)[C@@H]1CCCN1C(=O)[C@H](CCC(=O)O)NC(=O)[C@H](CCC(N)=O)NC(=O)[C@H](CC(N)=O)NC(=O)[C@H](CCCCN)NC(=O)[C@H](CC(=O)O)NC(=O)[C@H](CC(C)C)NC(=O)[C@@H](NC(=O)[C@H](CCCCN)NC(=O)[C@H](Cc1ccccc1)NC(=O)[C@@H]1CCCN1C(=O)[C@H](CC(N)=O)NC(=O)[C@H](CCCNC(=N)N)NC(=O)[C@H](CC(C)C)NC(=O)[C@H](Cc1c[nH]c2ccccc12)NC(=O)[C@H](CC(N)=O)NC(=O)[C@H](CO)NC(=O)[C@H](CO)NC(=O)[C@H](Cc1c[nH]cn1)NC(=O)[C@H](Cc1c[nH]cn1)NC(=O)CCCCCNC(=O)CCCC[C@@H]1SC[C@@H]2NC(=O)N[C@@H]21)C(C)C)C(=O)N[C@@H](CCCCN)C(N)=O
Question: Which Kd [1] does the source give for B4 here?
Answer: 0.72 µM

B5: HA-WDHD1, full length, intact NPF motif (natural protein)
chain: MPATRKPMRYGHTEGHTEVCFDDSGSFIVTCGSDGDVRIWEDLDDDDPKFINVGEKAYSCALKSGKLVTAVSNNTIQVHTFPEGVPDGILTRFTTNANHVVFNGDGTKIAAGSSDFLVKIVDVMDSSQQKTFRGHDAPVLSLSFDPKDIFLASASCDGSVRVWQISDQTCAISWPLLQKCNDVINAKSICRLAWQPKSGKLLAIPVEKSVKLYRRESWSHQFDLSDNFISQTLNIVTWSPCGQYLAAGSINGLIIVWNVETKDCMERVKHEKGYAICGLAWHPTCGRISYTDAEGNLGLLENVCDPSGKTSSSKVSSRVEKDYNDLFDGDDMSNAGDFLNDNAVEIPSFSKGIINDDEDDEDLMMASGRPRQRSHILEDDENSVDISMLKTGSSLLKEEEEDGQEGSIHNLPLVTSQRPFYDGPMPTPRQKPFQSGSTPLHLTHRFMVWNSIGIIRCYNDEQDNAIDVEFHDTSIHHATHLSNTLNYTIADLSHEAILLACESTDELASKLHCLHFSSWDSSKEWIIDLPQNEDIEAICLGQGWAAAATSALLLRLFTIGGVQKEVFSLAGPVVSMAGHGEQLFIVYHRGTGFDGDQCLGVQLLELGKKKKQILHGDPLPLTRKSYLAWIGFSAEGTPCYVDSEGIVRMLNRGLGNTWTPICNTREHCKGKSDHYWVVGIHENPQQLRCIPCKGSRFPPTLPRPAVAILSFKLPYCQIATEKGQMEEQFWRSVIFHNHLDYLAKNGYEYEESTKNQATKEQQELLMKMLALSCKLEREFRCVELADLMTQNAVNLAIKYASRSRKLILAQKLSELAVEKAAELTATQVEEEEEEEDFRKKLNAGYSNTATEWSQPRFRNQVEEDAEDSGEADDEEKPEIHKPGQNSFSKSTNSSDVSAKSGAVTFSSQGRVNPFKVSASSKEPAMSMNSARSTNILDNMGKSSKKSTALSRTTNNEKSPIIKPLIPKPKPKQASAASYFQKRNSQTNKTEEVKEENLKNVLSETPAICPPQNTENQRPKTGFQMWLEENRSNILSDNPDFSDEADIIKEGMIRFRVLSTEERKVWANKAKGETASEGTEAKKRKRVVDESDETENQEEKAKENLNLSKKQKPLDFSTNQKLSAFAFKQE
Question: For B5, which Kd [2] is on record?
Answer: 0.07 µM

B6: NPF motif peptide of POLA1 (residues 177-206) (peptide)
peptide: PVMILKKKRSIGASPNPFSVHTATAVPSGK
HELM: PEPTIDE1{[O=C1N[C@H]2[C@H](CS[C@H]2CCCCC(=O)[*:2])N1].[O=C(CCCCCN[*:1])[*:2]].P.V.M.I.L.K.K.K.R.S.I.G.A.S.P.N.P.F.S.V.H.T.A.T.A.V.P.S.G.K.[am]}$$$$V2.0
SMILES: CC[C@H](C)[C@H](NC(=O)[C@H](CO)NC(=O)[C@H](CCCNC(=N)N)NC(=O)[C@H](CCCCN)NC(=O)[C@H](CCCCN)NC(=O)[C@H](CCCCN)NC(=O)[C@H](CC(C)C)NC(=O)[C@@H](NC(=O)[C@H](CCSC)NC(=O)[C@@H](NC(=O)[C@@H]1CCCN1C(=O)CCCCCNC(=O)CCCC[C@@H]1SC[C@@H]2NC(=O)N[C@@H]21)C(C)C)[C@@H](C)CC)C(=O)NCC(=O)N[C@@H](C)C(=O)N[C@@H](CO)C(=O)N1CCC[C@H]1C(=O)N[C@@H](CC(N)=O)C(=O)N1CCC[C@H]1C(=O)N[C@@H](Cc1ccccc1)C(=O)N[C@@H](CO)C(=O)N[C@H](C(=O)N[C@@H](Cc1c[nH]cn1)C(=O)N[C@H](C(=O)N[C@@H](C)C(=O)N[C@H](C(=O)N[C@@H](C)C(=O)N[C@H](C(=O)N1CCC[C@H]1C(=O)N[C@@H](CO)C(=O)NCC(=O)N[C@@H](CCCCN)C(N)=O)C(C)C)[C@@H](C)O)[C@@H](C)O)C(C)C
Question: For B6, which Kd [3] is on record?
Answer: 2.5 µM

B7: HA-TTF2, full length, intact NPF motifs (natural protein)
chain: MEEVRCPEHGTFCFLKTGVRDGPNKGKSFYVCRADTCSFVRATDIPVSHCLLHEDFVVELQGLLLPQDKKEYRLFFRCIRSKAEGKRWCGSIPWQDPDSKEHSVSNKSQHASETFHHSSNWLRNPFKVLDKNQEPALWKQLIKGEGEEKKADKKQREKGDQLFDQKKEQKPEMMEKDLSSGLVPKKKQSVVQEKKQEEGAEIQCEAETGGTHKRDFSEIKSQQCQGNELTRPSASSQEKSSGKSQDVQRESEPLREKVTQLLPQNVHSHNSISKPQKGGPLNKEYTNWEAKETKAKDGPSIQATQKSLPQGHFQERPETHSVPAPGGPAAQAAPAAPGLSLGEGREAATSSDDEEEDDVVFVSSKPGSPLLFDSTLDLETKENLQFPDRSVQRKVSPASGVSKKVEPSDPVARRVYLTTQLKQKKSTLASVNIQALPDKGQKLIKQIQELEEVLSGLTLSPEQGTNEKSNSQVPQQSHFTKTTTGPPHLVPPQPLPRRGTQPVGSLELKSACQVTAGGSSQCYRGHTNQDHVHAVWKITSEAIGQLHRSLESCPGETVVAEDPAGLKVPLLLHQKQALAWLLWRESQKPQGGILADDMGLGKTLTMIALILTQKNQEKKEEKEKSTALTWLSKDDSCDFTSHGTLIICPASLIHHWKNEVEKRVNSNKLRVYLYHGPNRDSRARVLSTYDIVITTYSLVAKEIPTNKQEAEIPGANLNVEGTSTPLLRIAWARIILDEAHNVKNPRVQTSIAVCKLQACARWAVTGTPIQNNLLDMYSLLKFLRCSPFDEFNLWRSQVDNGSKKGGERLSILTKSLLLRRTKDQLDSTGRPLVILPQRKFQLHHLKLSEDEETVYNVFFARSRSALQSYLKRHESRGNQSGRSPNNPFSRVALEFGSEEPRHSEAADSPRSSTVHILSQLLRLRQCCCHLSLLKSALDPMELKGEGLVLSLEEQLSALTLSELRDSEPSSTVSLNGTFFKMELFEGMRESTKISSLLAELEAIQRNSASQKSVIVSQWTNMLKVVALHLKKHGLTYATIDGSVNPKQRMDLVEAFNHSRGPQVMLISLLAGGVGLNLTGGNHLFLLDMHWNPSLEDQACDRIYRVGQQKDVVIHRFVCEGTVEEKILQLQEKKKDLAKQVLSGSGESVTKLTLADLRVLFGI
Question: With B7 as the binder, how does the Kd [2] read?
Answer: 0.3 µM

Source: PMC12808100 (2025)
